Assay results taken from patent US20230038638A1, “COMPLEMENT FACTOR I-RELATED COMPOSITIONS AND METHODS” (published 2023).
Several values for one entry are separate records, joined by “and”; a condition that tells them apart may be missing. Identical values can stand only once.

How the values were obtained:
[1] = biological target: soluble human C3b (human) (UniProt P01024)
human C4b (human) = biological target: T1, human C4b (human) (UniProt P0C0L4)
T1 sequence: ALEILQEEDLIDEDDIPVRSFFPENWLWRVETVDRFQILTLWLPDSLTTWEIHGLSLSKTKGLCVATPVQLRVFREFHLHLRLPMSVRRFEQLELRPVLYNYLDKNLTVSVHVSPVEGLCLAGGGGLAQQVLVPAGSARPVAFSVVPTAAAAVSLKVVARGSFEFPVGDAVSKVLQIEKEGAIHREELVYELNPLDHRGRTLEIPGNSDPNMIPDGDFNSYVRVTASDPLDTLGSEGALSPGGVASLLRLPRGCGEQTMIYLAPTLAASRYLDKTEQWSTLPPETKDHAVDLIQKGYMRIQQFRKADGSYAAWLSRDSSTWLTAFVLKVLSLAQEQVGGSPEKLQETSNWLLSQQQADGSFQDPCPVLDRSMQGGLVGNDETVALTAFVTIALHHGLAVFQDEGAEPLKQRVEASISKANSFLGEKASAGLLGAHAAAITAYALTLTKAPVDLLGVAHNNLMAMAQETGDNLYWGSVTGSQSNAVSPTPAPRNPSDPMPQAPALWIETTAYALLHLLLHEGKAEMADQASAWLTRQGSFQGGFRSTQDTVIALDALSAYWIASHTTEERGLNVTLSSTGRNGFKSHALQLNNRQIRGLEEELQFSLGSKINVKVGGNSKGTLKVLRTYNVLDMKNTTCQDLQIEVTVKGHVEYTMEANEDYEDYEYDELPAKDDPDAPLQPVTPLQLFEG

CFI-HSA fusion WT; GGSSGG (SEQ ID NO: 6); CR1(ccp15); fH(ccp2); fH(ccp3); fH(ccp4), sequence (P17927 other isoform, or with tags, fused parts or gaps limits assumed): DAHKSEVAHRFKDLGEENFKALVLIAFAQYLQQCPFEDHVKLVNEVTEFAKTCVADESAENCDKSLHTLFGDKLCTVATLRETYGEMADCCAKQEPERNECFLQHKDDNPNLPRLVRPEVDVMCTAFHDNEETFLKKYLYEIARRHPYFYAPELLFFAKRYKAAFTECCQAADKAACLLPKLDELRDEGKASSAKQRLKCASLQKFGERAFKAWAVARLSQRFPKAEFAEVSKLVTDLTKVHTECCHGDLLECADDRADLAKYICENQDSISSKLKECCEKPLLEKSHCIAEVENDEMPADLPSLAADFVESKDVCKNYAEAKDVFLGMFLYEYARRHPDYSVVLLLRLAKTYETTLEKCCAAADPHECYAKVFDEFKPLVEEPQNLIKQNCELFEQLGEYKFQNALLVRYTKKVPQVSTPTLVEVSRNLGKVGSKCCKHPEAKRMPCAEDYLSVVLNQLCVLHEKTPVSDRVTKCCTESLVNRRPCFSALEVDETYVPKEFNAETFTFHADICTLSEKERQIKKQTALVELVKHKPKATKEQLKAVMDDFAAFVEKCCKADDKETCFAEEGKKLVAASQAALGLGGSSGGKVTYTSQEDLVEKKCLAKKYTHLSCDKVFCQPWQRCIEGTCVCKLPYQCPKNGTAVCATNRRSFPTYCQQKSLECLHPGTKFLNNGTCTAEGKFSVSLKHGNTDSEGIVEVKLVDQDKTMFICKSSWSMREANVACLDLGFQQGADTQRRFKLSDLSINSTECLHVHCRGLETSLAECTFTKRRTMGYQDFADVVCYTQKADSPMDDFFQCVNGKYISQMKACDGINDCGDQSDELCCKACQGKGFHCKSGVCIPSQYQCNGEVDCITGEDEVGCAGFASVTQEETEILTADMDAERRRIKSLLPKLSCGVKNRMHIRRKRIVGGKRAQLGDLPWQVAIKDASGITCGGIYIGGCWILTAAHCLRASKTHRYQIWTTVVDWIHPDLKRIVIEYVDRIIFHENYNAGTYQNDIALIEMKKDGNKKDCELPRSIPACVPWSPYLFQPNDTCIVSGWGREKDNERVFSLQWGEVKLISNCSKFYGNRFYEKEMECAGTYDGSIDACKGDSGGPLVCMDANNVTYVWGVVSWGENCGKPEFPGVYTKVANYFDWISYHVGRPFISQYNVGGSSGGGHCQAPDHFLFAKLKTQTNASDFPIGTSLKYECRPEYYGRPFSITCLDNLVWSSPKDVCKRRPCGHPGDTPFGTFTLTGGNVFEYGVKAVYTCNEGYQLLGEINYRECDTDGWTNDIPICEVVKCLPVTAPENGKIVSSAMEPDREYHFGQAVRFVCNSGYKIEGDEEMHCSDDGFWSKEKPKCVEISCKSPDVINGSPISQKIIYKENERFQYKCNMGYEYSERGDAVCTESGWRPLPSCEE

Substance | iC3b Screen Ref Fold (fold of CFI-HSA wild type) [1] | C4b Screen Ref Fold (fold of CFI-HSA wild type) (human C4b (human)) | iC3b Screen Ref Fold (fold of reference) [1] | C4b Screen Ref Fold (fold of reference) (human C4b (human))
CFI-HSA Y408L; N531G; F464Y (enzyme) | 1 | 5.93 | – | –
CFI-HSA Y408L; N531G; R462K (enzyme) | 1.13 | 3.76 | – | –
CFI-HSA Y408L; N531G; R462K; F464Y (enzyme) | 1.19 | 5.72 | – | –
CFI-HSA Y408L; R462K (enzyme) | 0.48 | 0.31 | – | –
CFI-HSA Y408L; R462K; F464Y (enzyme) | 0.19 | 0.27 | – | –
CFI-HSA Y408L; S507A; N531G (enzyme) | -0.01 | 0.12 | – | –
CFI-HSA Y408L; S507A; N531G; GGSSGG (SEQ ID NO: 6); CCP_1-4 (enzyme) | 0.01 | 0.1 | – | –
CFI-HSA fusion WT; GGSSGG (SEQ ID NO: 6); CR1(ccp15); CR1(ccp16); CR1(ccp17); fH(ccp4) (from UniProt P17927) (enzyme) | – | – | 0.01 | 2.57
CFI-HSA fusion WT; GGSSGG (SEQ ID NO: 6); CR1(ccp15); CR1(ccp16); fH(ccp3); fH(ccp4) (from UniProt P17927) (enzyme) | – | – | -0.01 | 0.25
CFI-HSA fusion WT; GGSSGG (SEQ ID NO: 6); CR1(ccp15); fH(ccp2); fH(ccp3); fH(ccp4) (from UniProt P17927) (enzyme) | – | – | -0.01 | 1.44
CFI-HSA fusion WT; GGSSGG (SEQ ID NO: 6); fH(ccp1); CR1(ccp16); CR1(ccp17); fH(ccp4) (from UniProt P17927) (enzyme) | – | – | 0 | 0.42
CFI-HSA fusion WT; GGSSGG (SEQ ID NO: 6); fH(ccp1); CR1(ccp16); fH(ccp3); fH(ccp4) (from UniProt P17927) (enzyme) | – | – | 0 | 0.59
CFI-HSA variant A405S; G406A; Y408L; Q409D (enzyme) | – | – | 0.06 | 0.11
CFI-HSA variant A405S; G406R; Y408L; Q409D (enzyme) | – | – | 0.13 | -0.08
CFI-HSA variant D425K; E457G; E461Q; K504R; N531G (enzyme) | 2.46 | 3.53 | – | –
CFI-HSA variant D425K; E457G; E461Q; N531G; P558S (enzyme) | 1.98 | 3.25 | – | –
CFI-HSA variant D425K; E530F; F537K; K504R (enzyme) | 0.13 | 0.02 | – | –
CFI-HSA variant D425K; E530F; F537K; K504R; P558S (enzyme) | 0.09 | 0.16 | – | –
CFI-HSA variant D425K; F537K (enzyme) | 2.11 | 0.22 | – | –
CFI-HSA variant D425K; K504R (enzyme) | 2.05 | 0.12 | – | –
CFI-HSA variant D425K; S507A (enzyme) | -0.03 | 0.01 | – | –
CFI-HSA variant D425K; Y408M; E530F; F537K (enzyme) | 0.07 | 0.03 | – | –
CFI-HSA variant D425K; Y408M; E530F; F537K; K504R (enzyme) | 0.02 | 0.15 | – | –
CFI-HSA variant D425K; Y408M; E530F; F537K; K504R; P558S (enzyme) | 0.01 | 0.11 | – | –
CFI-HSA variant D425K; Y408M; E530F; F537K; P558S (enzyme) | 0.04 | 0.07 | – | –

Substance | iC3b Screen Ref Fold (fold of CFI-HSA wild type) [1] | C4b Screen Ref Fold (fold of CFI-HSA wild type) (human C4b (human)) | iC3b Screen Ref Fold (fold of reference) [1] | C4b Screen Ref Fold (fold of reference) (human C4b (human))
CFI-HSA variant D425K; Y408M; E530F; K504R; P558S (enzyme) | 1.84 | 0.49 | – | –
CFI-HSA variant D425K; Y408M; E530F; P558S (enzyme) | 1.53 | 0.07 | – | –
CFI-HSA variant D425K; Y408M; F537K; K504R; P558S (enzyme) | 1.49 | 0.08 | – | –
CFI-HSA variant E416A; E457G; E461Q; R462K; F464Y; N531G (enzyme) | 3.21 | 3.68 | – | –
CFI-HSA variant E457G; E461Q; N531G; S507A (enzyme) | -0.04 | -0.05 | – | –
CFI-HSA variant E457G; S507A (enzyme) | -0.02 | 0.1 | – | –
CFI-HSA variant E461A (enzyme) | – | – | 1.37 | 1.44
CFI-HSA variant E461D (enzyme) | – | – | 0.12 | 0.12
CFI-HSA variant E461F (enzyme) | – | – | 0.95 | 2.62
CFI-HSA variant E461G (enzyme) | – | – | 0.94 | 0.31
CFI-HSA variant E461N (enzyme) | – | – | 1.15 | 2.52
CFI-HSA variant E461P (enzyme) | – | – | 0.02 | -0.01
CFI-HSA variant E461Q; S507A (enzyme) | -0.04 | -0.01 | – | –
CFI-HSA variant E461S (enzyme) | – | – | 0.95 | 1.32
CFI-HSA variant E461W (enzyme) | – | – | 0.67 | 0.8
CFI-HSA variant E461Y (enzyme) | – | – | 0.99 | 2.38
CFI-HSA variant E530F; F537K (enzyme) | 0.03 | 0 | – | –
CFI-HSA variant E530F; K504R (enzyme) | 1.14 | 0.05 | – | –
CFI-HSA variant E530F; P558S (enzyme) | 1.4 and 1.38 | 0.34 and 0.16 | – | –
CFI-HSA variant E530F; S507A (enzyme) | -0.04 | 0.13 | – | –
CFI-HSA variant E530K (enzyme) | – | – | 0.96 | 0.19
CFI-HSA variant E530Y; P558S (enzyme) | 1.62 | 0.43 | – | –
CFI-HSA variant F537K; K504R (enzyme) | 1.06 | 0.11 | – | –
CFI-HSA variant F537K; P558S (enzyme) | 1.18 | 0.38 | – | –
CFI-HSA variant F537K; S507A (enzyme) | -0.04 | -0.09 | – | –
